Substrate: CCn1c(=NN=c2sc3cc(S(=O)(=O)O)ccc3n2CC)sc2cc(S(=O)(=O)O)ccc21
Experiment: purified protein
Type: biochemical, Pleurotus sapidus
Conditions: 100 µM H2O2, 25 mM MnSO4, optimal pH and temperature (pH 3.5, 40 °C)

B1: PsaPOX (DyP-type peroxidase of Pleurotus sapidus) (Pleurotus sapidus) (protein)
chain: MTTPAPPLDLNNIQGDILGGLPKKTETYFFFDVTNVDRFKANMTQFIPHVKTSAGIVKDREAIKEHKRQKRPGLVPMAAVNVSFSHLGLQKLGITDDLSDSSFTTGQRKDAEVLGDPGTKNGDTFTPAWEAPFLKDIHGVIFVAGDCHASVHKKLDEIKHIFGVGTSHASISEVTHVRGDVRPGQVSAHEHFGFLDGISNPAVDQFDQNPFPGQDSIRPGFILAKENGDSRAAARPDWAKDGSFLTFRYLFQMVPEFDDFLESNPIVLPGLSRKEGSELLGARIVGRWKSGAPIEITPLKDDPKLGADAQRNNNFDFGDSLVRGDQTKCPFAAHIRKTYPRNDLEGPPLNADIDNRRIIRRGIQFGPEVTSQEHHDKKTHHGRGLLFVCYSSSIDDGFHFIQQSWANAPNFPVNAVTSAGPIPPLDGVIPGFDAIIGQKVGGGIRQISGTNPNDPTTNITLPDQDFVIPRGGEYFFSPSISALKTKFAAGVASSAPQAQAPIST
notes: full-length ORF (1512 bp, 504 aa), C-terminal 6x His tag kept, S. cerevisiae alpha-factor secretion signal (pPIC9), Komagataella pfaffii GS115, Ni-NTA; monomeric
Km: 37 ± 4 µM
kcat/Km: 184000 ± 5000 M⁻¹ s⁻¹
